One test deals with human IL-17A (human) (UniProt Q16552). Briefly: cell-based or functional assay.
The next test deals with human TNF-α (human) (UniProt P01375). Briefly: cell-based or functional assay.
UniProt P01375, sequence (P01375 77-233 limits assumed): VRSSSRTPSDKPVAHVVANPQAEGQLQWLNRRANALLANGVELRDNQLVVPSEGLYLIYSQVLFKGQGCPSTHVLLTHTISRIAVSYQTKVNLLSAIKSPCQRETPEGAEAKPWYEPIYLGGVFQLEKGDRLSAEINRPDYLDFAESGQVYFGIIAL

UniProt Q16552, sequence (Q16552 24-155 limits assumed): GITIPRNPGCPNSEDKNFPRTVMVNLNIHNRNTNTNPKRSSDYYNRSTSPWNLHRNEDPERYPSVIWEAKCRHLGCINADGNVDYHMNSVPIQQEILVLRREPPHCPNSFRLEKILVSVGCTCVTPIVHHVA

Consider LY3114062 (bispecific antibody), for which, in the test with human IL-17A (human), the IC50, hIL-6 secretion of commercial RA-FLS cells stimulated with IL-17A and TNF-α (co-neutralization) stood at 0.0149 nM; the IC50, hIL-6 secretion of commercial RA-FLS cells stimulated with hIL-17A was found to be 0.371 nM. In the test with human TNF-α (human), this substance came in with an IC50, hIL-6 secretion of commercial RA-FLS cells stimulated with IL-17A and TNF-α (co-neutralization) of 0.0149 nM; an IC50, hIL-6 secretion of commercial RA-FLS cells stimulated with hTNF-α of 0.0186 nM.
